The values that follow come from patent US20090175858A1 (Merck KGaA, published 2009).

One assay concerns the target T1, sEGFR K454A/T459A/S460A (UniProt P00533 25-645, limits assumed).
T1 construct: extracellular domain; Positions are in mature EGFR numbering; also called triple alanine mutant
The experiment in a line: SPR, equilibrium response, mutated sEGFR passed over immobilized Fab72000 [2A]. For orientation: Surface plasmon resonance follows binding to a sensor surface in real time, without labels.

The target of another assay is T2, sEGFR T459A/S460A/K463A (UniProt P00533 25-645, limits assumed).
T2 construct: extracellular domain; Positions are in mature EGFR numbering; also called triple alanine mutant
The assay is described as above.

Assay [1] concerns the target T3, sEGFRd3 (isolated domain III of sEGFR; amino acids 310-514 of mature EGFR) (UniProt P00533 334-538).
T3 construct: range 310-514; The range 310-514 counts on mature EGFR, not on the precursor; also called soluble extracellular EGFR domain III
Nature of the assay: SPR (Biacore 3000), equilibrium response, sEGFRd3 over immobilized Fab72000.

Assay [2] has as its target T4, sEGFR (soluble extracellular region of EGFR), wild-type (UniProt P00533 25-645, limits assumed).
T4 construct: extracellular domain; also called EGFR soluble extracellular domain
The experiment in a line: SPR (Biacore 3000), equilibrium response, sEGFR over immobilized Fab72000.

B1: Fab fragment of matuzumab (Fab72000) (Fab, V domains shown)
VH: QVQLVQSGAEVKKPGASVKVSCKASGYTFTSHWMHWVRQAPGQGLEWIGEFNPSNGRTNYNEKFKSKATMTVDTSTNTAYMELSSLRSEDTAVYYCASRDYDYDGRYFDYWGQGTLVTVSS
VL: DIQMTQSPSSLSASVGDRVTITCSASSSVTYMYWYQQKPGKAPKLLIYDTSNLASGVPSRFSGSGSGTDYTFTISSLQPEDIATYYCQQWSSHIFTFGQGTKVEIKR
notes: also called Fab fragment of EMD 72000
As for B1, the binding result in the assay with sEGFR K454A/T459A/S460A and with sEGFR T459A/S460A/K463A was “no binding (tested: 2000 nM)” each time. Also, the dissociation constant Kd (in general, the equilibrium constant for the complex coming apart) in assay [1] worked out at 50.1 nM; in assay [2], 103 nM.
